Consider 5 molecules from publication PMC6854716, “Redesigning N-glycosylation sites in a GH3 β-xylosidase improves the enzymatic efficiency” (Biotechnology for Biofuels, 2019).

Series [1] has as its system O=[N+]([O-])c1ccc(O[C@@H]2OC[C@@H](O)[C@H](O)[C@H]2O)cc1. Kind of series: purified protein. The format is biochemical, Aspergillus nidulans. The note with it: 0.05 M ammonium acetate pH 5.0, 60 °C, 1–20 mM substrate.
Substrate in the series “purified protein”: O=[N+]([O-])c1ccc(O[C@@H]2OC[C@@H](O)[C@H](O)[C@H]2O)cc1
As to the kind of experiment: purified protein. The format is biochemical, Aspergillus nidulans. The note with it: 0.05 M ammonium acetate pH 5.0, 60 °C, 1–20 mM substrate. The source holds these as a separate data set.

Series [2] in a line: Michaelis-Menten kinetics, purified enzyme, pH 5.0, 60 °C. The note with it: glycan lost; control: BxlBwt.
Series [3] in a line: ρNP-X activity of intracellular extract. The note with it: glycan lost; control: BxlBwt.
Series [4] can be described thus: far-UV CD secondary structure. The note with it: glycan lost; control: BxlBwt.
Series [5] is described as follows: western blot of crude extracellular extract, polyclonal anti-BxlB. The note with it: glycan lost; control: BxlBwt.
Series [6] in a line: CD thermal melt, 20-100 °C. The note with it: glycan lost; control: BxlBwt.

Consider “BxlB^wt (GH3 β-xylosidase BxlB) (Aspergillus nidulans FGSC A4; N340Q/N408Q/N419Q/N458Q/N621Q/N760Q)”, for which, in series [1], the Km amounted to 2530 ± 230 µM, the Vmax was found to be 9.49 µmol/min/mg, the kcat came out at 13 s⁻¹ and the specificity constant (kcat/Km) came to 5130 M⁻¹ s⁻¹.

B1: BxlB^wt (GH3 β-xylosidase BxlB) (Aspergillus nidulans FGSC A4) (protein)
chain: NYPDCTTGPLSELPICDTSLSPLERAKSLVSALTLEEKINNTGHEAAGSSRLGLPAYNWWNEALHGVAEKHGVSFEESGDFSYATSFPAPIVLGAAFNDALIRRVAEIISTEARAFSNSDHAGIDYWTPNVNPFKDPRWGRGQETPGEDPLHCSRYVKEFVGGLQGDDPEKPKVVATCKHLAAYDLEEWGGVSRFEFDAKVSAVDLLEYYLPPFKTCAVDASVGAFMCSYNALNGVPACADRYLLQTVLREHWGWEGPGHWVTGDCGAVERIQTYHHYVESGPEAAAAALNAGVDLDCGTWLPSYLGEAERQGLISNETLDAALTRLYTSLVQLGYFDPAEGQPLRSLGWDDVATSEAEELAKTVAIQGTVLLKNIDWTLPLKANGTLALIGPFINFTTELQSNYAGPAKHIPTMIEAAERLGYNVLTAPGTEVNSTSTDGFDDALAIAAEADALIFFGGIDNTVEEESLDRTRIDWPGNQEELILELAELGRPLTVVQFGGGQVDDSALLASAGVGAIVWAGYPSQAGGAGVFDVLTGKAAPAGRLPITQYPKSYVDEVPMTDMNLQPGTDNPGRTYRWYEDAVLPFGFGLHYTTFNVSWAKKAFGPYDAATLARGKNPSSNIVDTFSLAVTNTGDVASDYVALVFASAPELGAQPAPIKTLVGYSRASLIKPGETRKVDVEVTVAPLTRATEDGRVVLYPGEYTLLVDVNDEYPTAKFEIKGDVQVLEKFPLSGNDSD
notes: homologous secreted expression in A. nidulans A773 (pEXPYR, glaA promoter, A. niger glucoamylase signal peptide); purified by DEAE and Superdex 200; N-glycosylated at N63, N340, N408, N419, N458, N621, N760
Consider B1, for which, in the series “purified protein”, the Km came to 2060 ± 130 µM, the Vmax worked out at 9.55 µmol/min/mg, the kcat worked out at 13.1 s⁻¹ and the kcat/Km turned out to be 6340 M⁻¹ s⁻¹.

B2: BxlB (GH3 β-xylosidase): BxlBN1;5;7 (protein)
parent chain: MAVFKSWNLALLSSLFIPALCQSNYPDCTTGPLSELPICDTSLSPLERAKSLVSALTLEEKINNTGHEAAGSSRLGLPAYNWWNEALHGVAEKHGVSFEESGDFSYATSFPAPIVLGAAFNDALIRRVAEIISTEARAFSNSDHAGIDYWTPNVNPFKDPRWGRGQETPGEDPLHCSRYVKEFVGGLQGDDPEKPKVVATCKHLAAYDLEEWGGVSRFEFDAKVSAVDLLEYYLPPFKTCAVDASVGAFMCSYNALNGVPACADRYLLQTVLREHWGWEGPGHWVTGDCGAVERIQTYHHYVESGPEAAAAALNAGVDLDCGTWLPSYLGEAERQGLISNETLDAALTRLYTSLVQLGYFDPAEGQPLRSLGWDDVATSEAEELAKTVAIQGTVLLKNIDWTLPLKANGTLALIGPFINFTTELQSNYAGPAKHIPTMIEAAERLGYNVLTAPGTEVNSTSTDGFDDALAIAAEADALIFFGGIDNTVEEESLDRTRIDWPGNQEELILELAELGRPLTVVQFGGGQVDDSALLASAGVGAIVWAGYPSQAGGAGVFDVLTGKAAPAGRLPITQYPKSYVDEVPMTDMNLQPGTDNPGRTYRWYEDAVLPFGFGLHYTTFNVSWAKKAFGPYDAATLARGKNPSSNIVDTFSLAVTNTGDVASDYVALVFASAPELGAQPAPIKTLVGYSRASLIKPGETRKVDVEVTVAPLTRATEDGRVVLYPGEYTLLVDVNDEYPTAKFEIKGDVQVLEKFPLSGNDSD
As for B2, in series [2], the “enzymatic_activity, kcat_Km” value is listed as “increases, 9.51 vs 6.34, 50% higher catalytic efficiency as compared to the wild type”. Moreover, in series [3], the “enzymatic_activity, fold_change” value is “increases”. Moreover, the structure_or_conformation entry in series [4] is “no change”. Further, the expression_or_secretion result in series [5] is given as “decreases”. In series [6], the “stability_or_folding, Tm” value is “decreases, 61.6 vs 63.8”.

B3: BxlB (GH3 β-xylosidase): BxlBN5 (protein)
parent chain: MAVFKSWNLALLSSLFIPALCQSNYPDCTTGPLSELPICDTSLSPLERAKSLVSALTLEEKINNTGHEAAGSSRLGLPAYNWWNEALHGVAEKHGVSFEESGDFSYATSFPAPIVLGAAFNDALIRRVAEIISTEARAFSNSDHAGIDYWTPNVNPFKDPRWGRGQETPGEDPLHCSRYVKEFVGGLQGDDPEKPKVVATCKHLAAYDLEEWGGVSRFEFDAKVSAVDLLEYYLPPFKTCAVDASVGAFMCSYNALNGVPACADRYLLQTVLREHWGWEGPGHWVTGDCGAVERIQTYHHYVESGPEAAAAALNAGVDLDCGTWLPSYLGEAERQGLISNETLDAALTRLYTSLVQLGYFDPAEGQPLRSLGWDDVATSEAEELAKTVAIQGTVLLKNIDWTLPLKANGTLALIGPFINFTTELQSNYAGPAKHIPTMIEAAERLGYNVLTAPGTEVNSTSTDGFDDALAIAAEADALIFFGGIDNTVEEESLDRTRIDWPGNQEELILELAELGRPLTVVQFGGGQVDDSALLASAGVGAIVWAGYPSQAGGAGVFDVLTGKAAPAGRLPITQYPKSYVDEVPMTDMNLQPGTDNPGRTYRWYEDAVLPFGFGLHYTTFNVSWAKKAFGPYDAATLARGKNPSSNIVDTFSLAVTNTGDVASDYVALVFASAPELGAQPAPIKTLVGYSRASLIKPGETRKVDVEVTVAPLTRATEDGRVVLYPGEYTLLVDVNDEYPTAKFEIKGDVQVLEKFPLSGNDSD
B3: the “enzymatic_activity, kcat_Km” value in series [2] is given as “decreases, 0.61 vs 6.34”. Further, in series [4], the structure_or_conformation entry is on record as “no change”. Besides, in series [5], the expression_or_secretion result is reported as “decreases”. In addition, the “stability_or_folding, Tm” value in series [6] is given as “decreases”.

B4: BxlB (GH3 β-xylosidase): BxlBN1 (protein)
parent chain: MAVFKSWNLALLSSLFIPALCQSNYPDCTTGPLSELPICDTSLSPLERAKSLVSALTLEEKINNTGHEAAGSSRLGLPAYNWWNEALHGVAEKHGVSFEESGDFSYATSFPAPIVLGAAFNDALIRRVAEIISTEARAFSNSDHAGIDYWTPNVNPFKDPRWGRGQETPGEDPLHCSRYVKEFVGGLQGDDPEKPKVVATCKHLAAYDLEEWGGVSRFEFDAKVSAVDLLEYYLPPFKTCAVDASVGAFMCSYNALNGVPACADRYLLQTVLREHWGWEGPGHWVTGDCGAVERIQTYHHYVESGPEAAAAALNAGVDLDCGTWLPSYLGEAERQGLISNETLDAALTRLYTSLVQLGYFDPAEGQPLRSLGWDDVATSEAEELAKTVAIQGTVLLKNIDWTLPLKANGTLALIGPFINFTTELQSNYAGPAKHIPTMIEAAERLGYNVLTAPGTEVNSTSTDGFDDALAIAAEADALIFFGGIDNTVEEESLDRTRIDWPGNQEELILELAELGRPLTVVQFGGGQVDDSALLASAGVGAIVWAGYPSQAGGAGVFDVLTGKAAPAGRLPITQYPKSYVDEVPMTDMNLQPGTDNPGRTYRWYEDAVLPFGFGLHYTTFNVSWAKKAFGPYDAATLARGKNPSSNIVDTFSLAVTNTGDVASDYVALVFASAPELGAQPAPIKTLVGYSRASLIKPGETRKVDVEVTVAPLTRATEDGRVVLYPGEYTLLVDVNDEYPTAKFEIKGDVQVLEKFPLSGNDSD
Turning to B4, in series [2], the “enzymatic_activity, kcat_Km” value is “decreases, 5.13 vs 6.34”. The structure_or_conformation result in series [4] was “no change”. For the same molecule, in series [5], the expression_or_secretion entry was “decreases”. In addition, the “stability_or_folding, Tm” value in series [6] is given as “decreases”.

Broadly, the Km is the substrate concentration at which the rate is half of its maximum. The Vmax is the rate approached at saturating substrate. In general, kcat refers to the number of substrate molecules converted per active site and unit of time at saturation. By kcat/Km is commonly meant the turnover number divided by the Michaelis constant.
